B1: LINE1-mini (parent)
chain: GGCAGAGCUCAACACAGCGUGGCAAAGUGGCUGUGGCUAGACUGCC

Variants of: B1
Assay: self-cleavage, relative activity (ratio to wild type); higher = more cleavage; in vitro, sequencing; the parent is a self-cleaving ribozyme

Variant | self-cleavage
GGCAGAGCUCAACACAGCGGGGCAAUGUGGCUGUGGCUAGACUGCC [U20G A26U] | 0.3
GGAAGAGCUCAACACAGCGUGGCAAAGUGGCUGUGGUUAGACUGCC [C3A C37U] | 0.33
GGCAGAGCUCAACACAGCGUGUCAAAGAGGCUGUGGCUAGACUGCC [G22U U28A] | 0.58
GGCAGUGCUCAACACAGCGUGGCAAAGUUGCUGUGGCUAGACUGCC [A6U G29U] | 0.66
GGGAGAGCUCAACACAGCGUGGCCAAGUGGCUGUGGCUAGACUGCC [C3G A24C] | 0.35
GGCAGAGCUCGACACAGCGUGGCAAAGUGGCUGUGGCUAGACUCCC [A11G G44C] | 0.03
GGCAGAGCUCAACACAGCGCGGCUAAGUGGCUGUGGCUAGACUGCC [U20C A24U] | 0.67
GGCAGAUCUCAACAAAGCGUGGCAAAGUGGCUGUGGCUAGACUGCC [G7U C15A] | 0.16
GGCGGAGCUCUACACAGCGUGGCAAAGUGGCUGUGGCUAGACUGCC [A4G A11U] | 0.05
GGCAGAGCCCAACACAGCGUGGCAAAGUGGCUGUGGCUAGACUGCU [U9C C46U] | 0.03
GUCAGCGCUCAACACAGCGUGGCAAAGUGGCUGUGGCUAGACUGCC [G2U A6C] | 0.04
GGCAGAGCUCAACACAGCGUGGCAUAGUGGCUGUGGCUAGAUUGCC [A25U C42U] | 0.4
GGCAGAGCUCAACACCGCGUGGCAAAGUGGCUGUGUCUAGACUGCC [A16C G36U] | 0.07
GGCAGAGAUCAACACAGCGUGGCAAAGAGGCUGUGGCUAGACUGCC [C8A U28A] | 0.17
GGCAGAGCUCAACACAGCGUGGCAAAGUGGCUGUGUCAAGACUGCC [G36U U38A] | 0.05
GGCAGAGCUCCACACAGCGUGGUAAAGUGGCUGUGGCUAGACUGCC [A11C C23U] | 0.05
GGCAGGGCUGAACACAGCGUGGCAAAGUGGCUGUGGCUAGACUGCC [A6G C10G] | 0.02
GGCAGGGCUUAACACAGCGUGGCAAAGUGGCUGUGGCUAGACUGCC [A6G C10U] | 0.04
GGCAGAGAUCAACACAGCGUGGUAAAGUGGCUGUGGCUAGACUGCC [C8A C23U] | 0.27

Variant | self-cleavage
GGCAGAGCUCAACACAGCGCGGAAAAGUGGCUGUGGCUAGACUGCC [U20C C23A] | 0.49
GGCAGAGCUCAACACAGCGUGGCCAAGUGACUGUGGCUAGACUGCC [A24C G30A] | 0.71
CGCAGAGCUCAACACGGCGUGGCAAAGUGGCUGUGGCUAGACUGCC [G1C A16G] | 0.12
CGCAGAGCUCAACACCGCGUGGCAAAGUGGCUGUGGCUAGACUGCC [G1C A16C] | 0.01
GGCAGUGCUCAACACAGCGUGUCAAAGUGGCUGUGGCUAGACUGCC [A6U G22U] | 0.79
GGUAGAGCUCAACACAGCAUGGCAAAGUGGCUGUGGCUAGACUGCC [C3U G19A] | 0.83
GGCCGAGCCCAACACAGCGUGGCAAAGUGGCUGUGGCUAGACUGCC [A4C U9C] | 0.04
GGCGGAGCUCAACACAGCGUGGCAAAGUGGCUGUGGCUAGACUCCC [A4G G44C] | 0.08
GGCAGAGCUCAACACAGCGUGGCGAAGUGGCUCUGGCUAGACUGCC [A24G G33C] | 0.06
GCCUGAGCUCAACACAGCGUGGCAAAGUGGCUGUGGCUAGACUGCC [G2C A4U] | 0.08
GGCAGAGCUAAACACAGCGUGUCAAAGUGGCUGUGGCUAGACUGCC [C10A G22U] | 0.07
GGCAGAGCUCAACACAGCGUGGCGAAGUGGGUGUGGCUAGACUGCC [A24G C31G] | 0.05
GGCAGAGCUCAACGCAGCGUGGCAAAGUGGCUGUGGCUAUACUGCC [A14G G40U] | 0.12
GGCAGAGCUCAACCCAGCGUGGCGAAGUGGCUGUGGCUAGACUGCC [A14C A24G] | 0.07
UGCAGAGCUCAACAGAGCGUGGCAAAGUGGCUGUGGCUAGACUGCC [G1U C15G] | 0.04
GGCAGAGCUCAACACAGAGUGGCAAAGUCGCUGUGGCUAGACUGCC [C18A G29C] | 0.83
GGCAGAGCUCAACACAGCGUGGCAAAGUGGCGGUGGCUACACUGCC [U32G G40C] | 0.07
GGCAGAGCUCAACACAGCGUGGCAAGGUGGCUGUGGCCAGACUGCC [A26G U38C] | 0.44
GGCAGAGCUCAACACAGCGUGGCAAAGUGGCUGUGGCUAUACUCCC [G40U G44C] | 0.16

Variant | self-cleavage
GGCAGAGCUCAACACAGCGAGGCAAAGUGGCUGUGGCUAAACUGCC [U20A G40A] | 0.1
GGCAAAGCUCAACACAGCGUGGCAAAGUGGCUGUGGCUAGAUUGCC [G5A C42U] | 1.53
GGCAGAGCUCAACACAGCGGGGAAAAGUGGCUGUGGCUAGACUGCC [U20G C23A] | 0.48
AGCAGAGCUCAACACAGCGUGGCAACGUGGCUGUGGCUAGACUGCC [G1A A26C] | 0.78
GGCAGAGCUCAACACAACGUGGCAAAGUGGCUGUGCCUAGACUGCC [G17A G36C] | 0.05
GGUAGAGCUCAACACAGGGUGGCAAAGUGGCUGUGGCUAGACUGCC [C3U C18G] | 0.09
GGCAGAGCUCAACAAAGCGUGGCAAAGUGGCUGUGUCUAGACUGCC [C15A G36U] | 0.06
GGCAGAGCUCAACACAGCGUGGCUAAGUGGCUGUGGCUAGACUGAC [A24U C45A] | 0.31
GGCAGAGCUCAACACAGCGUGGCAAAGUGGCUCUCGCUAGACUGCC [G33C G35C] | 0.04
GGAAGAGCUCAACACAGCGUGGCAGAGUGGCUGUGGCUAGACUGCC [C3A A25G] | 0.29
GGCAGAGCUCAACAUAGCGUGGCAAAGUCGCUGUGGCUAGACUGCC [C15U G29C] | 1.59
GGCUGAGCCCAACACAGCGUGGCAAAGUGGCUGUGGCUAGACUGCC [A4U U9C] | 0.07
GGCAGAGCUCAACACAGUGUGGCAAAGUGGCUGGGGCUAGACUGCC [C18U U34G] | 0.03
GGCACAGCUCAACACAGCGUGGCAAAGUCGCUGUGGCUAGACUGCC [G5C G29C] | 0.05
GACAGAGCUCAACACAGCGUGGCACAGUGGCUGUGGCUAGACUGCC [G2A A25C] | 0.62
GGCAGAACUCAACACAGCGUGGCAAAGUGGCUGUGGCUAGACUGUC [G7A C45U] | 0.21
GGCAGAGUUCAACACAGCGUGGCAAAGUGGCUGUGGCUAGACUGCG [C8U C46G] | 0.2
GGCAGAGGUCAACACAGCGUCGCAAAGUGGCUGUGGCUAGACUGCC [C8G G21C] | 0.06

From the RNAGym collection of RNA variant scans (doi:10.7554/elife.90254)
